The assay addresses adeno-associated virus (AAV)-DJ capsid protein. The assay can be described thus: cryo-EM structure.

The source of these data is paper PMC5415311.

For the substance “adeno-associated virus (AAV)-DJ capsid protein”, the stoichiometry N is 60.

The stoichiometry N is the number of molecules, sites or subunits per partner or assembly.
